Measured values published in article PMC11811267 (Journal of Separation Science, 2025).

Legend:
Format in all cases: in vitro ADME
[1] = Long-term stability in artificial plasma at −80°C; settings: triplicate, 2D-LC-MS/MS
Method: (§1) The stability tests of all insulins were performed at two concentration levels (193 and 7752 pg/mL). One set of tests was performed with artificial plasma and the other set with artificial plasma containing 1% PIC. Each concentration level was tested in triplicate. These QC samples were quantified using an artificial plasma calibration curve without PIC, and the obtained concentrations were compared with the nominal concentrations of the low quality control (LQC) and high quality control (HQC), which were set to 100%. To evaluate the stability of insulins in artificial plasma containing 1% PIC, we considered the concentration measured at time zero as the baseline (100%). All subsequent changes in concentration were calculated relative to this initial measurement.
(§2) Short‐term stability, long‐term stability, and freeze‐thaw stability were evaluated in this study. LQC and HQC samples were stored at room temperature and in a refrigerator for 3, 6, and 24 h to assess short‐term (bench‐top) stability and at 4°C in the autosampler for 24 h to assess re‐injection stability.

[2] = Autosampler (re-injection) stability at 4°C for 24 h; settings: autosampler (AS) 4°C, triplicate, 2D-LC-MS/MS
Method: as §1, §2

[3] = Freeze-thaw stability in artificial plasma after storage at −80°C; settings: stored at −80°C, triplicate, 2D-LC-MS/MS; for 24 h, change (%): cycle at 24 h; for 48 h, change (%): cycle at 48 h; for 72 h, change (%): cycle at 72 h
Method: as §1, §2

[4] = Long-term stability in artificial plasma at −20°C; settings: triplicate, 2D-LC-MS/MS
Method: as §1, §2

[5] = artificial plasma (BZ273) with 1% PIC, 193 pg/mL, % of concentration at time zero
[6] = artificial plasma (BZ273) with 1% PIC, 7752 pg/mL, % of concentration at time zero
[7] = artificial plasma (BZ273) without PIC, 193 pg/mL, % of nominal concentration
[8] = artificial plasma (BZ273) without PIC, 7752 pg/mL, % of nominal concentration
[9] = extracted samples from artificial plasma with 1% PIC, 193 pg/mL, % of concentration at time zero (=100%)
[10] = extracted samples from artificial plasma with 1% PIC, 7752 pg/mL, % of concentration at time zero (=100%)
[11] = extracted samples from artificial plasma without PIC, 193 pg/mL, % of nominal concentration (=100%)
[12] = extracted samples from artificial plasma without PIC, 7752 pg/mL, % of nominal concentration (=100%)
[13] = artificial plasma (BZ273) without PIC, 7752 pg/mL, % of nominal concentration, listed as Insulin aspart

Substance: detemir
- 1 week, change (%) [1, 5]: <LLOQ
- 1 week, change (%) [1, 6]: 139.1%
- 1 week, change (%) [1, 7]: 64.2%
- 1 week, change (%) [1, 8]: 63.2%
- 2 weeks, change (%) [1, 5]: <LLOQ
- 2 weeks, change (%) [1, 6]: 173.5%
- 2 weeks, change (%) [1, 7]: 50.5%
- 2 weeks, change (%) [1, 8]: 54.7%
- 3 weeks, change (%) [1, 5]: <LLOQ
- 3 weeks, change (%) ([1]; artificial plasma (BZ273) with 1% PIC, 193 pg/mL, % of concentration at time zero, listed as Insulin detemir): < LLOQ
- 3 weeks, change (%) [1, 6]: 154.5%
- 3 weeks, change (%) [1, 7]: 34.1%
- 3 weeks, change (%) [1, 8]: 49.4%
- 24 h AS, change (%) [2, 9]: <LLOQ
- 24 h AS, change (%) [2, 10]: 66.0%
- 24 h AS, change (%) [2, 11]: 98.4%
- 24 h AS, change (%) [2, 12]: 93.7%
- 24 h, change (%) [3, 5]: 115.2%
- 24 h, change (%) [3, 6]: 375.0%
- 24 h, change (%) [3, 7]: 253.5%
- 24 h, change (%) [3, 8]: 168.5%
- 48 h, change (%) [3, 5]: 140.6%
- 48 h, change (%) [3, 6]: 344.2%
- 48 h, change (%) [3, 7]: 349.6%
- 48 h, change (%) [3, 8]: 195.4%
- 72 h, change (%) [3, 5]: 116.7%
- 72 h, change (%) [3, 6]: 285.9%
- 72 h, change (%) [3, 7]: 243.7%
- 72 h, change (%) [3, 8]: 161.5%
- 1 week, change (%) [4, 5]: <LLOQ
- 1 week, change (%) [4, 6]: 71.2%
- 1 week, change (%) [4, 7]: <LLOQ
- 1 week, change (%) [4, 8]: 27.0%
- 2 weeks, change (%) [4, 5]: <LLOQ
- 2 weeks, change (%) [4, 6]: 71.8%
- 2 weeks, change (%) [4, 7]: <LLOQ
- 2 weeks, change (%) [4, 8]: 24.8%
- 3 weeks, change (%) [4, 5]: <LLOQ
- 3 weeks, change (%) [4, 6]: 62.2%
- 3 weeks, change (%) [4, 7]: <LLOQ
- 3 weeks, change (%) [4, 8]: 21.9%

Substance: glulisine
- 1 week, change (%) [1, 6]: 88.1%
- 1 week, change (%) [1, 7]: 103.5%
- 1 week, change (%) [1, 8]: 84.5%
- 2 weeks, change (%) [1, 6]: 117.9%
- 2 weeks, change (%) [1, 7]: 102.7%
- 2 weeks, change (%) [1, 8]: 83.7%
- 3 weeks, change (%) [1, 5]: 79.1%
- 3 weeks, change (%) [1, 6]: 95.2%
- 3 weeks, change (%) [1, 7]: 98.8%
- 3 weeks, change (%) [1, 8]: 75.6%
- 24 h AS, change (%) [2, 9]: 93.2%
- 24 h AS, change (%) [2, 11]: 97.6%
- 24 h AS, change (%) [2, 12]: 82.2%
- 24 h, change (%) [3, 5]: 79.0%
- 24 h, change (%) [3, 6]: 93.1%
- 24 h, change (%) [3, 7]: 99.0%
- 24 h, change (%) [3, 8]: 92.3%
- 48 h, change (%) [3, 5]: 106.9%
- 48 h, change (%) [3, 6]: 119.5%
- 48 h, change (%) [3, 8]: 95.2%
- 72 h, change (%) [3, 5]: 92.4%
- 72 h, change (%) [3, 6]: 95.0%
- 72 h, change (%) [3, 7]: 106.5%
- 72 h, change (%) [3, 8]: 81.1%
- 1 week, change (%) [4, 5]: 51.7%
- 1 week, change (%) [4, 6]: 55.6%
- 1 week, change (%) [4, 7]: 99.7%
- 1 week, change (%) [4, 8]: 86.2%
- 2 weeks, change (%) [4, 5]: 36.7%
- 2 weeks, change (%) [4, 6]: 143.0%
- 2 weeks, change (%) [4, 8]: 84.0%
- 3 weeks, change (%) [4, 5]: 29.2%
- 3 weeks, change (%) [4, 6]: 31.5%
- 3 weeks, change (%) [4, 7]: 84.8%
- 3 weeks, change (%) [4, 8]: 79.8%

Substance: insulin aspart
- 1 week, change (%) [1, 5]: 116.5%
- 1 week, change (%) [1, 6]: 123.4%
- 1 week, change (%) [1, 7]: 106.0%
- 1 week, change (%) [1, 8]: 104.7%
- 2 weeks, change (%) [1, 5]: 99.6%
- 2 weeks, change (%) [1, 6]: 106.6%
- 2 weeks, change (%) [1, 8]: 97.2%
- 3 weeks, change (%) [1, 5]: 93.4%
- 3 weeks, change (%) [1, 6]: 108.9%
- 3 weeks, change (%) [1, 7]: 97.8%
- 3 weeks, change (%) [1, 8]: 92.8%
- 24 h AS, change (%) [2, 10]: 125.7%
- 24 h AS, change (%) [2, 11]: 92.6%
- 24 h, change (%) [3, 5]: 111.6%
- 24 h, change (%) [3, 6]: 117.4%
- 24 h, change (%) [3, 7]: 90.4%
- 24 h, change (%) [3, 8]: 100.00%
- 24 h, change (%) [3, 13]: 100.0%
- 48 h, change (%) [3, 5]: 111.6%
- 48 h, change (%) [3, 6]: 115.5%
- 48 h, change (%) [3, 7]: 98.1%
- 72 h, change (%) [3, 5]: 93.7%
- 72 h, change (%) [3, 6]: 99.8%
- 72 h, change (%) [3, 7]: 85.7%
- 72 h, change (%) [3, 8]: 92.10%
- 72 h, change (%) [3, 13]: 92.1%
- 1 week, change (%) [4, 5]: 70.7%
- 1 week, change (%) [4, 6]: 72.2%
- 1 week, change (%) [4, 7]: 105.6%
- 1 week, change (%) [4, 8]: 104.3%
- 2 weeks, change (%) [4, 5]: 58.4%
- 2 weeks, change (%) [4, 6]: 62.5%
- 2 weeks, change (%) [4, 7]: 107.3%
- 2 weeks, change (%) [4, 8]: 100.2%
- 3 weeks, change (%) [4, 5]: 39.5%
- 3 weeks, change (%) [4, 6]: 35.8%
- 3 weeks, change (%) [4, 7]: 101.4%
- 3 weeks, change (%) [4, 8]: 95.2%
